B1: ABCG5/G8 (Homo sapiens) (protein)
chain 1: MGDLSSLTPGGSMGLQVNRGSQSSLEGAPATAPEPHSLGILHASYSVSHRVRPWWDITSCRQQWTRQILKDVSLYVESGQIMCILGSSGSGKTTLLDAMSGRLGRAGTFLGEVYVNGRALRREQFQDCFSYVLQSDTLLSSLTVRETLHYTALLAIRRGNPGSFQKKVEAVMAELSLSHVADRLIGNYSLGGISTGERRRVSIAAQLLQDPKVMLFDEPTTGLDCMTANQIVVLLVELARRNRIVVLTIHQPRSELFQLFDKIAILSFGELIFCGTPAEMLDFFNDCGYPCPEHSNPFDFYMDLTSVDTQSKEREIETSKRVQMIESAYKKSAICHKTLKNIERMKHLKTLPMVPFKTKDSPGVFSKLGVLLRRVTRNLVRNKLAVITRLLQNLIMGLFLLFFVLRVRSNVLKGAIQDRVGLLYQFVGATPYTGMLNAVNLFPVLRAVSDQESQDGLYQKWQMMLAYALHVLPFSVVATMIFSSVCYWTLGLHPEVARFGYFSAALLAPHLIGEFLTLVLLGIVQNPNIVNSVVALLSIAGVLVGSGFLRNIQEMPIPFKIISYFTFQKYCSEILVVNEFYGLNFTCGSSNVSVTTNPMCAFTQGIQFIEKTCPGATSRFTMNFLILYSFIPALVILGIVVFKIRDHLISR
chain 2: MAGKAAEERGLPKGATPQDTSGLQDRLFSSESDNSLYFTYSGQPNTLEVRDLNYQVDLASQVPWFEQLAQFKMPWTSPSCQNSCELGIQNLSFKVRSGQMLAIIGSSGCGRASLLDVITGRGHGGKIKSGQIWINGQPSSPQLVRKCVAHVRQHNQLLPNLTVRETLAFIAQMRLPRTFSQAQRDKRVEDVIAELRLRQCADTRVGNMYVRGLSGGERRRVSIGVQLLWNPGILILDEPTSGLDSFTAHNLVKTLSRLAKGNRLVLISLHQPRSDIFRLFDLVLLMTSGTPIYLGAAQHMVQYFTAIGYPCPRYSNPADFYVDLTSIDRRSREQELATREKAQSLAALFLEKVRDLDDFLWKAETKDLDEDTCVESSVTPLDTNCLPSPTKMPGAVQQFTTLIRRQISNDFRDLPTLLIHGAEACLMSMTIGFLYFGHGSIQLSFMDTAALLFMIGALIPFNVILDVISKCYSERAMLYYELEDGLYTTGPYFFAKILGELPEHCAYIIIYGMPTYWLANLRPGLQPFLLHFLLVWLVVFCCRIMALAAAALLPTFHMASFFSNALYNSFYLAGGFMINLSSLWTVPAWISKVSFLRWCFEGLMKIQFSRRTYKMPLGNLTIAVSGDKILSVMELDSYPLYAIYLIVIGLSGGFMVLYYVSLRFIKQKPSQDW
notes: full-length heterodimer; ABCG5 C-terminal His6GlyHis6, ABCG8 C-terminal 3C site and CBP (CBP tag and N-glycans kept); Pichia pastoris KM71H; DDM-purified
B2: ABCG5/G8 (Homo sapiens; Q9H221:R543S) (protein)
chain 1: MGDLSSLTPGGSMGLQVNRGSQSSLEGAPATAPEPHSLGILHASYSVSHRVRPWWDITSCRQQWTRQILKDVSLYVESGQIMCILGSSGSGKTTLLDAMSGRLGRAGTFLGEVYVNGRALRREQFQDCFSYVLQSDTLLSSLTVRETLHYTALLAIRRGNPGSFQKKVEAVMAELSLSHVADRLIGNYSLGGISTGERRRVSIAAQLLQDPKVMLFDEPTTGLDCMTANQIVVLLVELARRNRIVVLTIHQPRSELFQLFDKIAILSFGELIFCGTPAEMLDFFNDCGYPCPEHSNPFDFYMDLTSVDTQSKEREIETSKRVQMIESAYKKSAICHKTLKNIERMKHLKTLPMVPFKTKDSPGVFSKLGVLLRRVTRNLVRNKLAVITRLLQNLIMGLFLLFFVLRVRSNVLKGAIQDRVGLLYQFVGATPYTGMLNAVNLFPVLRAVSDQESQDGLYQKWQMMLAYALHVLPFSVVATMIFSSVCYWTLGLHPEVARFGYFSAALLAPHLIGEFLTLVLLGIVQNPNIVNSVVALLSIAGVLVGSGFLRNIQEMPIPFKIISYFTFQKYCSEILVVNEFYGLNFTCGSSNVSVTTNPMCAFTQGIQFIEKTCPGATSRFTMNFLILYSFIPALVILGIVVFKIRDHLISR
chain 2: MAGKAAEERGLPKGATPQDTSGLQDRLFSSESDNSLYFTYSGQPNTLEVRDLNYQVDLASQVPWFEQLAQFKMPWTSPSCQNSCELGIQNLSFKVRSGQMLAIIGSSGCGRASLLDVITGRGHGGKIKSGQIWINGQPSSPQLVRKCVAHVRQHNQLLPNLTVRETLAFIAQMRLPRTFSQAQRDKRVEDVIAELRLRQCADTRVGNMYVRGLSGGERRRVSIGVQLLWNPGILILDEPTSGLDSFTAHNLVKTLSRLAKGNRLVLISLHQPRSDIFRLFDLVLLMTSGTPIYLGAAQHMVQYFTAIGYPCPRYSNPADFYVDLTSIDRRSREQELATREKAQSLAALFLEKVRDLDDFLWKAETKDLDEDTCVESSVTPLDTNCLPSPTKMPGAVQQFTTLIRRQISNDFRDLPTLLIHGAEACLMSMTIGFLYFGHGSIQLSFMDTAALLFMIGALIPFNVILDVISKCYSERAMLYYELEDGLYTTGPYFFAKILGELPEHCAYIIIYGMPTYWLANLRPGLQPFLLHFLLVWLVVFCCSIMALAAAALLPTFHMASFFSNALYNSFYLAGGFMINLSSLWTVPAWISKVSFLRWCFEGLMKIQFSRRTYKMPLGNLTIAVSGDKILSVMELDSYPLYAIYLIVIGLSGGFMVLYYVSLRFIKQKPSQDW
notes: as for B1
B3: ABCG5/G8 (Homo sapiens; Q9H222:A540F) (protein)
chain 1: MGDLSSLTPGGSMGLQVNRGSQSSLEGAPATAPEPHSLGILHASYSVSHRVRPWWDITSCRQQWTRQILKDVSLYVESGQIMCILGSSGSGKTTLLDAMSGRLGRAGTFLGEVYVNGRALRREQFQDCFSYVLQSDTLLSSLTVRETLHYTALLAIRRGNPGSFQKKVEAVMAELSLSHVADRLIGNYSLGGISTGERRRVSIAAQLLQDPKVMLFDEPTTGLDCMTANQIVVLLVELARRNRIVVLTIHQPRSELFQLFDKIAILSFGELIFCGTPAEMLDFFNDCGYPCPEHSNPFDFYMDLTSVDTQSKEREIETSKRVQMIESAYKKSAICHKTLKNIERMKHLKTLPMVPFKTKDSPGVFSKLGVLLRRVTRNLVRNKLAVITRLLQNLIMGLFLLFFVLRVRSNVLKGAIQDRVGLLYQFVGATPYTGMLNAVNLFPVLRAVSDQESQDGLYQKWQMMLAYALHVLPFSVVATMIFSSVCYWTLGLHPEVARFGYFSAALLAPHLIGEFLTLVLLGIVQNPNIVNSVVALLSIFGVLVGSGFLRNIQEMPIPFKIISYFTFQKYCSEILVVNEFYGLNFTCGSSNVSVTTNPMCAFTQGIQFIEKTCPGATSRFTMNFLILYSFIPALVILGIVVFKIRDHLISR
chain 2: MAGKAAEERGLPKGATPQDTSGLQDRLFSSESDNSLYFTYSGQPNTLEVRDLNYQVDLASQVPWFEQLAQFKMPWTSPSCQNSCELGIQNLSFKVRSGQMLAIIGSSGCGRASLLDVITGRGHGGKIKSGQIWINGQPSSPQLVRKCVAHVRQHNQLLPNLTVRETLAFIAQMRLPRTFSQAQRDKRVEDVIAELRLRQCADTRVGNMYVRGLSGGERRRVSIGVQLLWNPGILILDEPTSGLDSFTAHNLVKTLSRLAKGNRLVLISLHQPRSDIFRLFDLVLLMTSGTPIYLGAAQHMVQYFTAIGYPCPRYSNPADFYVDLTSIDRRSREQELATREKAQSLAALFLEKVRDLDDFLWKAETKDLDEDTCVESSVTPLDTNCLPSPTKMPGAVQQFTTLIRRQISNDFRDLPTLLIHGAEACLMSMTIGFLYFGHGSIQLSFMDTAALLFMIGALIPFNVILDVISKCYSERAMLYYELEDGLYTTGPYFFAKILGELPEHCAYIIIYGMPTYWLANLRPGLQPFLLHFLLVWLVVFCCRIMALAAAALLPTFHMASFFSNALYNSFYLAGGFMINLSSLWTVPAWISKVSFLRWCFEGLMKIQFSRRTYKMPLGNLTIAVSGDKILSVMELDSYPLYAIYLIVIGLSGGFMVLYYVSLRFIKQKPSQDW
notes: as for B1
B4: ABCG5/G8 (Homo sapiens; Q9H222:E146Q) (protein)
chain 1: MGDLSSLTPGGSMGLQVNRGSQSSLEGAPATAPEPHSLGILHASYSVSHRVRPWWDITSCRQQWTRQILKDVSLYVESGQIMCILGSSGSGKTTLLDAMSGRLGRAGTFLGEVYVNGRALRREQFQDCFSYVLQSDTLLSSLTVRQTLHYTALLAIRRGNPGSFQKKVEAVMAELSLSHVADRLIGNYSLGGISTGERRRVSIAAQLLQDPKVMLFDEPTTGLDCMTANQIVVLLVELARRNRIVVLTIHQPRSELFQLFDKIAILSFGELIFCGTPAEMLDFFNDCGYPCPEHSNPFDFYMDLTSVDTQSKEREIETSKRVQMIESAYKKSAICHKTLKNIERMKHLKTLPMVPFKTKDSPGVFSKLGVLLRRVTRNLVRNKLAVITRLLQNLIMGLFLLFFVLRVRSNVLKGAIQDRVGLLYQFVGATPYTGMLNAVNLFPVLRAVSDQESQDGLYQKWQMMLAYALHVLPFSVVATMIFSSVCYWTLGLHPEVARFGYFSAALLAPHLIGEFLTLVLLGIVQNPNIVNSVVALLSIAGVLVGSGFLRNIQEMPIPFKIISYFTFQKYCSEILVVNEFYGLNFTCGSSNVSVTTNPMCAFTQGIQFIEKTCPGATSRFTMNFLILYSFIPALVILGIVVFKIRDHLISR
chain 2: MAGKAAEERGLPKGATPQDTSGLQDRLFSSESDNSLYFTYSGQPNTLEVRDLNYQVDLASQVPWFEQLAQFKMPWTSPSCQNSCELGIQNLSFKVRSGQMLAIIGSSGCGRASLLDVITGRGHGGKIKSGQIWINGQPSSPQLVRKCVAHVRQHNQLLPNLTVRETLAFIAQMRLPRTFSQAQRDKRVEDVIAELRLRQCADTRVGNMYVRGLSGGERRRVSIGVQLLWNPGILILDEPTSGLDSFTAHNLVKTLSRLAKGNRLVLISLHQPRSDIFRLFDLVLLMTSGTPIYLGAAQHMVQYFTAIGYPCPRYSNPADFYVDLTSIDRRSREQELATREKAQSLAALFLEKVRDLDDFLWKAETKDLDEDTCVESSVTPLDTNCLPSPTKMPGAVQQFTTLIRRQISNDFRDLPTLLIHGAEACLMSMTIGFLYFGHGSIQLSFMDTAALLFMIGALIPFNVILDVISKCYSERAMLYYELEDGLYTTGPYFFAKILGELPEHCAYIIIYGMPTYWLANLRPGLQPFLLHFLLVWLVVFCCRIMALAAAALLPTFHMASFFSNALYNSFYLAGGFMINLSSLWTVPAWISKVSFLRWCFEGLMKIQFSRRTYKMPLGNLTIAVSGDKILSVMELDSYPLYAIYLIVIGLSGGFMVLYYVSLRFIKQKPSQDW
notes: as for B1

Substrate: Nc1ncnc2c1ncn2[C@@H]1O[C@H](COP(=O)(O)OP(=O)(O)OP(=O)(O)O)[C@@H](O)[C@H]1O
Assay: colorimetric bismuth citrate phosphate-release ATPase assay
Type: biochemical, Homo sapiens
Settings: E. coli polar lipids, 1.5% sodium cholate, 4.1 mM CHS, Mg2+, 0.1% DDM, pH 7.5, 37 °C
Source text: colorimetric bismuth citrate phosphate-release ATPase assay on ABCG5/G8

Question: B1 was tested. Which Km did it give?
Answer: The Km was 600 ± 70 µM.

Question: What about the Vmax of the same protein?
Answer: The Vmax was 0.677 µmol/min/mg.

Question: And the kcat?
Answer: Its kcat is 1.69 ± 0.06 s⁻¹.

Question: And the kcat/Km?
Answer: Its kcat/Km is 2800 M⁻¹ s⁻¹.

Question: Which Km does the source give for B2 here?
Answer: Its Km is 420 ± 40 µM.

Question: And the Vmax?
Answer: Its Vmax is 0.151 µmol/min/mg.

Question: What about the kcat of the same protein?
Answer: The kcat was 0.38 ± 0.01 s⁻¹.

Question: And the kcat/Km?
Answer: Its kcat/Km is 900 M⁻¹ s⁻¹.

Question: What does the source list for B3?
Answer: Km: 580 ± 80 µM; Vmax: 0.101 µmol/min/mg; kcat: 0.25 ± 0.01 s⁻¹; kcat/Km: 430 M⁻¹ s⁻¹

Question: B4 was tested. Which Km did it give?
Answer: The Km was 510 ± 50 µM.

Question: And the Vmax?
Answer: The Vmax was 0.167 µmol/min/mg.

Question: What about the kcat of the same protein?
Answer: The kcat was 0.41 s⁻¹.

Question: What about the kcat/Km of the same protein?
Answer: The kcat/Km was 820 M⁻¹ s⁻¹.
